Results taken from PMC6393540, “A dual role in regulation and toxicity for the disordered N-terminus of the toxin GraT”.
Numbering of substitutions follows the chain as printed.

Experiments:
[1] = biological target: N-terminally His-tagged antitoxin GraA (Pseudomonas putida); experiment: native MS; GraA2 (20 μM dimer) mixed with operator DNA duplex at 1:1, 2:1 and 4:1, 40 mM ammonium acetate pH 7, nano-electrospray
[2] = biological target: N-terminally His-tagged antitoxin GraA (Pseudomonas putida); experiment: crystal structure; crystal of hisGraA2 with the 33 bp graTA operator DNA, 3.8 Å, data at 100 K
[3] = biological target: N-terminally His-tagged antitoxin GraA (Pseudomonas putida); experiment: crystal structure; crystal of hisGraA2, 1.96 Å, data at 100 K
[4] = biological target: untagged antitoxin GraA co-expressed with His-tagged GraT (Pseudomonas putida); experiment: crystal structure; crystal of the co-expressed and co-purified hisGraT2A2 complex, 2.2 Å, data at 100 K
[5] = biological target: T1, GraA (antitoxin; His-GraA2) (Pseudomonas putida (PaW85?)) (UniProt Q88MI6); experiment: ITC; details: ITC: 50 mM Tris pH 8.0, 250 mM NaCl, 2 mM β-mercaptoethanol (TCEP in purification for ITC), 25 °C; EMSA: 5 µM DNA, 30 min at room temperature, 6% native PAGE …
T1 sequence: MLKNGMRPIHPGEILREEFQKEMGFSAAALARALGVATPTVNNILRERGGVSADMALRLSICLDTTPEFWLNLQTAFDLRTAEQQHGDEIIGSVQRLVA

[6] = biological target: T2, GraA (antitoxin; His-GraA2) (Pseudomonas putida, UniProt Q88MI6 1-99); experiment: ITC; N.D., binding too weak; ITC: 50 mM Tris pH 8.0, 250 mM NaCl, 2 mM β-mercaptoethanol (TCEP in purification for ITC), 25 °C; EMSA: 5 µM DNA, 30 min at room temperature, 6% native PAGE in TBE on ice; details: protein: recombinant; tags: N-terminal His6; chain copies: 4
T2 sequence: T1 sequence

[7] = biological target: T2, GraA (antitoxin; His-GraA2); experiment: ITC; macroscopic; ITC: 50 mM Tris pH 8.0, 250 mM NaCl, 2 mM β-mercaptoethanol (TCEP in purification for ITC), 25 °C; EMSA: 5 µM DNA, 30 min at room temperature, 6% native PAGE in TBE on ice; details: protein: recombinant; tags: N-terminal His6; chain copies: 4
[8] = biological target: T3, GraT (toxin) in GraT2A2 complex;GraA (untagged) in GraT2A2 complex (Pseudomonas putida;Pseudomonas putida, UniProt Q88MI5;Q88MI6 1-92;1-99, |); experiment: as above; details: protein: recombinant;recombinant; tags: N-terminal His6;none; chain copies: 2;2
T3 sequence 1: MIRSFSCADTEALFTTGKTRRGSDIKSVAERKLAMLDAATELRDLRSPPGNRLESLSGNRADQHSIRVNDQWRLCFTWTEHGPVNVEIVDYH
T3 sequence 2: T1 sequence

[9] = biological target: T2, GraA (antitoxin; His-GraA2); experiment: ITC; macroscopic, 2 dimers per DNA; text also gives 3.1e13; ITC: 50 mM Tris pH 8.0, 250 mM NaCl, 2 mM β-mercaptoethanol (TCEP in purification for ITC), 25 °C; EMSA: 5 µM DNA, 30 min at room temperature, 6% native PAGE in TBE on ice; details: protein: recombinant; tags: N-terminal His6; chain copies: 4

## N-terminally His-tagged antitoxin GraA (natural protein)
[1]
  stoichiometry N: 2
[2]
  stoichiometry N: 2
[3]
  stoichiometry N: 2

## untagged antitoxin GraA co-expressed with His-tagged GraT (natural protein)
[4]
  stoichiometry N: 2

## AGCTGAATGCTTAACGTTAAGCATTCAGCT (double strand) [Right side mirrored]
[5]
  Ka: 3.5e+12 M^-2

## AAATTAACGAATAACGTTATTCGTTAATTT (double strand) [Left side mirrored]
[5]
  Ka: 5.2e+12 M^-2

B1: Downstream half (dsDNA)
DNA 1: AATAACGTTAAGCATTCAGCT
DNA 2: AGCTGAATGCTTAACGTTATT
[6]
  binding result: no binding

B2: Variant 3 (dsDNA)
DNA 1: AAATTAACGAATAGTGTTAAGCATTCAGCT
DNA 2: AGCTGAATGCTTAACACTATTCGTTAATTT
[7]
  Ka: 3.9e+11 M^-2

B3: Variant 1 (dsDNA)
DNA 1: AAATTAACGAATAACGGGCCGCATTCAGCT
DNA 2: AGCTGAATGCGGCCCGTTATTCGTTAATTT
[7]
  Ka: 2.1e+09 M^-2

B4: Variant 4 (dsDNA)
DNA 1: AAAGGCACGAATAACGTTAAGCATTCAGCT
DNA 2: AGCTGAATGCTTAACGTTATTCGTGCCTTT
[7]
  Ka: 4.3e+13 M^-2

B5: Variant 5 (dsDNA)
DNA 1: AAATTAACGCCGAACGTTAAGCATTCAGC
DNA 2: GCTGAATGCTTAACGTTCGGCGTTAATTT
[7]
  Ka: 7.1e+12 M^-2

B6: graTA operator wild type 33 bp (dsDNA)
DNA 1: AAATTAACGAATAACGTTAAGCATTCAGCTCAT
DNA 2: ATGAGCTGAATGCTTAACGTTATTCGTTAATTT
[8]
  Ka: < 1e+07 M^-2
[9]
  Ka: 3e+13 M^-2

B7: Central palindrome (dsDNA)
DNA 1: GAATAACGTTAAG
DNA 2: CTTAACGTTATTC
[6]
  binding result: no binding

B8: Upstream half (dsDNA)
DNA 1: AAATTAACGAATAACGTTAAG
DNA 2: CTTAACGTTATTCGTTAATTT
[6]
  binding result: no binding

B9: Variant 6 (dsDNA)
DNA 1: AAATTAACGAATAACGTTAAGCCGGCAGCT
DNA 2: AGCTGCCGGCTTAACGTTATTCGTTAATTT
[7]
  Ka: 1.5e+13 M^-2

B10: Variant 2 (dsDNA)
DNA 1: B9 DNA 1 with T12G, A13C, A14C
DNA 2: B9 DNA 2 with T17G, T18G, A19C
[7]
  Ka: 4.7e+11 M^-2
